Source: paper PMC9307952, “Lipoate protein ligase B primarily recognizes the C8-phosphopantetheine arm of its donor substrate and weakly binds the acyl carrier protein” (The Journal of Biological Chemistry, 2022)

B1: E. coli LipB (EcLipB) (Escherichia coli K-12; G72A/G73A) (protein)
chain: MYQDKILVRQLGLQPYEPISQAMHEFTDTRDDSTLDEIWLVEHYPVFTQGQAGKAEHILMPGDIPVIQSDRAAQVTYHGPGQQVMYVLLNLKRRKLGVRELVTLLEQTVVNTLAELGIEAHPRADAPGVYVGEKKICSLGLRIRRGCSFHGLALNVNMDLSPFLRINPCGYAGMEMAKISQWKPEATTNNIAPRLLENILALLNNPDFEYITA
B2: E. coli LipB (EcLipB) (Escherichia coli K-12; R71A) (protein)
chain: MYQDKILVRQLGLQPYEPISQAMHEFTDTRDDSTLDEIWLVEHYPVFTQGQAGKAEHILMPGDIPVIQSDAGGQVTYHGPGQQVMYVLLNLKRRKLGVRELVTLLEQTVVNTLAELGIEAHPRADAPGVYVGEKKICSLGLRIRRGCSFHGLALNVNMDLSPFLRINPCGYAGMEMAKISQWKPEATTNNIAPRLLENILALLNNPDFEYITA
B3: E. coli LipB (EcLipB) (Escherichia coli K-12; K135A) (protein)
chain: MYQDKILVRQLGLQPYEPISQAMHEFTDTRDDSTLDEIWLVEHYPVFTQGQAGKAEHILMPGDIPVIQSDRGGQVTYHGPGQQVMYVLLNLKRRKLGVRELVTLLEQTVVNTLAELGIEAHPRADAPGVYVGEKAICSLGLRIRRGCSFHGLALNVNMDLSPFLRINPCGYAGMEMAKISQWKPEATTNNIAPRLLENILALLNNPDFEYITA

Substrate: CCCCCCCC(=O)SCCNC(=O)CCNC(=O)[C@H](O)C(C)(C)COP(=O)(O)OP(=O)(O)OC[C@H]1O[C@@H](n2cnc3c(N)ncnc32)[C@H](O)[C@@H]1OP(=O)(O)O
Experiment: purified protein
Details: 5 μM LipB, 25 μM E. coli GcvH as acceptor, 0-160 μM C8-CoA, 50 mM Tris-HCl, 200 mM NaCl, pH 8.0, 30 °C

Protein | Km [µM] | Vmax [µmol/min] | kcat [s⁻¹]
B1 | 6.71 ± 0.98 | 0.32 | 0.001
B2 | 34.39 ± 8.8 | 0.26 | 0.000833
B3 | 42.37 ± 4.58 | 0.2 | 0.000667
